The target of experiment [1] is T1, Recombinant Human DLL4 (R&D Systems Cat#1506-D4/CF) (human, UniProt Q9NR61 27-524).
T1 construct: Bought recombinant protein; also called delta-like protein 4; rHuman DLL4
Nature of the experiment: Multispot ECL (MSD) titration; antigen spotted on plate; Fab 232.5 nM; blank spot 460.

Experiment [2] has as its target T2, rHuman Erythropoietin R/Fc Chimera, CF (R&D Systems Cat#963-ER) (human, UniProt P19235 25-250).
T2 construct: Bought reagent; also called EPO R/Fc; EPO R; Fc part of the bought chimera not given
T2 sequence (looked up): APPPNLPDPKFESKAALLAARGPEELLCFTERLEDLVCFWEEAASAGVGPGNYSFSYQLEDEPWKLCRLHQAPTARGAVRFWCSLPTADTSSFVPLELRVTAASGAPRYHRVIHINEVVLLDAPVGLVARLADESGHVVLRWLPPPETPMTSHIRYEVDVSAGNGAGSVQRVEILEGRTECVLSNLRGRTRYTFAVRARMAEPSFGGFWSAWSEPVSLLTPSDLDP
Nature of the experiment: MSD Multispot ECL, antigen spotted on plate, Fab 2.0 nM; blank spot 316.

For experiment [3], the target named is T3, Recombinant Human DLL4 (R&D Systems Cat#1506-D4/CF) (human, UniProt Q9NR61 27-529).
T3 construct: Bought recombinant protein; also called rHuman DLL4; delta-like protein 4
The description is as above.

The target in experiment [4] is T4, rHuman ErbB2/Fc Chimera, CF (R&D Systems Cat#1129-ER) (human, UniProt P04626 23-652).
T4 construct: Bought reagent; also called human epidermal growth factor 2 receptor; Fc part of the bought chimera not given
The description is as above.

Experiment [5] has as its target T5, rHuman EGF R/Fc Chimera, CF (R&D Systems Cat#344-ER) (human, UniProt P00533 25-645).
T5 construct: Bought reagent; also called epidermal growth factor receptor; Fc part of the bought chimera not given
The description is as above.

In experiment [6] the target is T6, rHuman HGF R/c-MET/Fc Chimera, CF (R&D Systems Cat#358-MT/CF) (human, UniProt P08581 25-932).
T6 construct: Bought reagent; also called HGF R/Fc; hepatocyte growth factor receptor; Fc part of the bought chimera not given
The experiment is described as above.

The target in experiment [7] is T7, rHuman Notch-1/Fc Chimera, CF (R&D Systems Cat#3647-TK) (human, UniProt P46531 19-526).
T7 construct: Bought reagent; Fc part of the bought chimera not given
Described as above.

For experiment [8], the target named is T8, rHuman CD44/Fc Chimera, CF (R&D Systems Cat#3660-CD) (human, UniProt P16070 21-220).
T8 construct: Bought reagent; Fc part of the bought chimera not given
The experiment is described as above.

Experiment [9] has as its target T9, rHuman IGF-1 sR, (IGF-1 sR), CF (R&D Systems Cat#391-GR) (human, UniProt P08069 31-932).
T9 construct: Bought soluble receptor; also called insulin-like growth factor-1 soluble receptor
Described as above.

Experiment [10] deals with T10, rHuman Erythropoietin R/Fc Chimera, CF (R&D Systems Cat#963-ER) (human, UniProt P19235 25-250).
T10 construct: Bought recombinant protein; also called EPO R; EPO R/Fc; Fc part of the bought chimera not given
T10 sequence (looked up): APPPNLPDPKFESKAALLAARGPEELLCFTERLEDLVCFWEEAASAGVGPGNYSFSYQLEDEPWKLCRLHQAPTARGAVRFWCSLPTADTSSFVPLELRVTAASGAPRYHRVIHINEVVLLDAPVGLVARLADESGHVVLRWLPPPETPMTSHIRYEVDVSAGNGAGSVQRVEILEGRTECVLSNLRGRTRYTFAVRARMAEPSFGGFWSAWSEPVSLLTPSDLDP
Nature of the experiment: ECL multispot (MSD) assay, spotted antigen; Fab 0.20 (head prints uM).

Experiment [11] addresses T11, Recombinant Human DLL4 (R&D Systems Cat#1506-D4/CF) (human, UniProt Q9NR61 27-524).
T11 construct: Bought recombinant protein; also called delta-like protein 4
The description is as above.

In experiment [12] the target is T12, rHuman ErbB2/Fc Chimera, CF (R&D Systems Cat#1129-ER) (human, UniProt P04626 23-652).
T12 construct: Bought recombinant protein; Fc part of the bought chimera not given
The description is as above.

Experiment [13] deals with T13, rHuman EGF R/Fc Chimera, CF (R&D Systems Cat#344-ER) (human, UniProt P00533 25-645).
T13 construct: Bought recombinant protein; Fc part of the bought chimera not given
Described as above.

Experiment [14] has as its target T14, rHuman HGF R/c-MET/Fc Chimera, CF (R&D Systems Cat#358-MT/CF) (human, UniProt P08581 25-932).
T14 construct: Bought recombinant protein; also called HGF R/Fc; Fc part of the bought chimera not given
The experiment is described as above.

Experiment [15] addresses T15, rHuman Notch-1/Fc Chimera, CF (R&D Systems Cat#3647-TK) (human, UniProt P46531 19-526).
T15 construct: Bought recombinant protein; Fc part of the bought chimera not given
Described as above.

Experiment [16] concerns the target T16, rHuman CD44/Fc Chimera, CF (R&D Systems Cat#3660-CD) (human, UniProt P16070 21-220).
T16 construct: Bought recombinant protein; Fc part of the bought chimera not given
The description is as above.

Experiment [17] addresses T17, rHuman IGF-1 sR, CF (R&D Systems Cat#391-GR) (human, UniProt P08069 31-932).
T17 construct: Bought soluble receptor; The column head prints only 'IGF-1'; also called insulin-like growth factor-1 soluble receptor
The description is as above.

The target in experiment [18] is T18, rHuman P-Cadherin/Fc Chimera, CF (R&D Systems Cat#861-PC) (human, UniProt P22223 108-654).
T18 construct: Bought recombinant protein; Fc part of the bought chimera not given
The description is as above.

Experiment [19] deals with T19, rHuman HGF R/c-MET/Fc Chimera, CF (R&D Systems Cat#358-MT/CF) (human, UniProt P08581 25-932).
T19 construct: Bought from R&D Systems; also called HGF R/Fc; hepatocyte growth factor receptor (HGF R/c-Met); not shown: Fc of the bought chimera
Nature of the experiment: MSD multispot ECL, antigen spotted on plate, Fab 11 nM; blank spot 212.

B1: Fab VH1-46_IGHD6-13*01_IGHJ4*01 & O1_IGKJ1*01 (Fab, V domains shown)
VH: QVQLVQSGAEVKKPGASVKVSCKASGYTFTSYYMHWVRQAPGQGLEWMGIINPSGGSTSYAQKFQGRVTMTRDTSTSTVYMELSSLRSEDTAVYYCAREGYSSSWYDYFDYWGQGTLVTVSS
VL: DIVMTQTPLSLPVTPGEPASISCRSSQSLLDSDDGNTYLDWYLQKPGQSPQLLIYTLSYRASGVPDRFSGSGSGTDFTLKISRVEAEDVGVYYCMQRIEFPSWTFGQGTKVEIKR
notes: Germline library Fab expressed in E. coli; VH was cloned into Plasmid A (CH1 constant region, His6 and Flag tags); The kappa VL was cloned into Plasmid C (kappa CL)
For B1, the ECL signal in experiment [1] turned out to be 3590.

B2: Fab VH1-8_IGHD2-2*01_IGHJ6*01 & L12_IGKJ1*01 (Fab, V domains shown)
VH: QVQLVQSGAEVKKPGASVKVSCKASGYTFTSYDINWVRQATGQGLEWMGWMNPNSGNTGYAQKFQGRVTMTRNTSISTAYMELSSLRSEDTAVYYCARGGYCSSTSCYADYYYYYGMDVWGQGTTVTVSS
VL: not shown
As to B2, the ECL signal turned out to be 433 in [2]; 605 in [3]; 382 in experiment [4]; 424 in experiment [5]; 356 in [6]; 539 in experiment [7]. The ECL signal in experiment [8] was 447; in [9] it was 367.

B3: Fab VH5-51_IGHD5-18*01>3_IGHJ4*01 G100K/G104T & V3-4_IGLJ1*01 (Fab, V domains shown)
VH: EVQLVQSGAEVKKPGESLKISCKGSGYSFTSYWIGWVRQMPGKGLEWMGIIYPGDSDTRYSPSFQGQVTISADKSISTAYLQWSSLKASDTAMYYCARRKYSYTYDYFDYWGQGTLVTVSS
VL: QTVVTQEPSFSVSPGGTVTLTCGLSSGSVSTSYYPSWYQQTPGQAPRTLIYSTNTRSSGVPDRFSGSILGNKAALTITGAQADDESDYYCVLYMGSGISYVFGTGTKVTVL
notes: Tested as a Fab; The constant parts are the same as for the parent Fab (CH1 with His6/Flag tags, lambda CL); also called KT double mutant; H:KT
Regarding B3, the ECL signal/noise ratio in experiment [10] amounted to 1.7; in [11], 3; in [12], 2.5; in experiment [13] it was 1.5; in experiment [14], 2.4; in experiment [15], 1.9. The ECL signal/noise ratio in [16] is 1.3; in experiment [17], 1.9; in experiment [18], 1.7.

B4: Fab VH1-46_IGHD3-10*01_IGHJ4*01 & B3_IGKJ1*01 (Fab, V domains shown)
VH: QVQLVQSGAEVKKPGASVKVSCKASGYTFTSYYMHWVRQAPGQGLEWMGIINPSGGSTSYAQKFQGRVTMTRDTSTSTVYMELSSLRSEDTAVYYCAREYYYGSGSYYNDYFDYWGQGTLVTVSS
VL: not shown
notes: Tested as a Fab made in E. coli; VH was cloned into Plasmid A (CH1 constant region, His6 and Flag tags); The kappa VL was cloned into Plasmid C (kappa CL)
The molecule B4 came in with an ECL signal in experiment [19] of 268.

(Values after patent US20120316071A1 (published 2012).)
